Assays:
[1] = target: T1, BVMO4 (Dietzia sp. D5, UniProt U5S003, P2A); assay: activity recovery of purified enzyme on FAD addition; format: biochemical; conditions: FAD added to 10 μM after Ni-NTA purification; phenylacetone as substrate; pH 7.5
T1 construct: full length, 612 residues; His-tagged in pET-22b(+) (NcoI/NotI); E. coli BL21-CodonPlus(DE3)-RP; Ni-NTA; about 75 kDa on SDS-PAGE, predicted 72 kDa; FAD added after purification

[2] = system: CC(=O)Cc1ccccc1; assay: purified protein; format: biochemical, Dietzia sp. D5; conditions: co-substrate NADPH (60 μM in the standard assay), 50 mM sodium phosphate pH 7.5, 10 mM KCl, 25 °C
[3] = substrate: NC(=O)C1=CN([C@@H]2O[C@H](COP(=O)(O)OP(=O)(O)OC[C@H]3O[C@@H](n4cnc5c(N)ncnc54)[C@H](OP(=O)(O)O)[C@@H]3O)[C@@H](O)[C@H]2O)C=CC1; assay: purified protein; format: biochemical, Dietzia sp. D5; conditions: NADPH varied, fixed ketone substrate not stated, 50 mM sodium phosphate pH 7.5, 10 mM KCl, 25 °C, varied: cofactor
[4] = substrate: CC1CCCCC1=O; assay: purified protein; format: biochemical, Dietzia sp. D5; conditions: co-substrate NADPH (60 μM in the standard assay), 50 mM sodium phosphate pH 7.5, 10 mM KCl, 25 °C

Molecule: Cc1cc2nc3c(=O)[nH]c(=O)nc-3n(C[C@H](O)[C@H](O)[C@H](O)COP(=O)(O)OP(=O)(O)OC[C@H]3O[C@@H](n4cnc5c(N)ncnc54)[C@H](O)[C@@H]3O)c2cc1C [FAD]
- activity recovery of purified enzyme on FAD addition [1]: The enzyme lost its activity during the purification process but was recovered upon addition of FAD

Molecule: BVMO4 (Dietzia sp. D5; P2A)
- Km [2]: 829 ± 163 µM
- Vmax [2]: 4.74 µM/min
- kcat [2]: 0.634 ± 0.104 s⁻¹
- kcat/Km [2]: 770 ± 30 M⁻¹ s⁻¹

B1: BVMO4 (Dietzia sp. D5; P2A) (protein)
chain: MAFTLPESKIAIDIDFDPDHLRQRFEADKQARERKDQLAQFQGLDDVLEVDDSDPFSEPITREPVTEELDALVLGGGFGGLTAGAYLTQNGVENFRLVEYGGDFGGTWYWNRYPGVQCDIESHIYMPLLEETGYVPSQRYADGSEIFEHAQRIGRHYGLYDRTYFQTRATHARWDEQIQRWEVTTDRGDRFVTRVLLRSNGALTKPQLPKVPGIGDFEGKIFHTSRWDYGYTGGSAAGDLAHLRDKRVAVVGTGATGVQVVPYLAQDAKELVVVQRTPSVVQPRNNRKTDPEWVASLTPGWQYERHDNFNGIISGHEVEGNLVDDGWTHLFPELTGQHLVDVPVGELPEGDQALVAELADMNLLMSAHARVDSIVTDPATADGLKPWFGYMCKRPCFNDEYLEAFNRPNVTLAASPAGIDGITSSGIVVAGTHYEVDCIIFATGFETGSGPAGIYGYDVIGREGHSMQEYFSEGARTFHGFFTHGFPNFVELGMSQTAYYVNFVYMLDRKARHAARLVRHLLDSGIGTFEPTAEAEADWVAEVRRSNEPREAYWGACTPGYYNGQGEVSKAVFRDVYNSSEIDFWNMIEAWWNSGRFEGLVFEPARDAVPVA
notes: full length, 612 residues; His-tagged in pET-22b(+) (NcoI/NotI); E. coli BL21-CodonPlus(DE3)-RP; Ni-NTA; about 75 kDa on SDS-PAGE, predicted 72 kDa; FAD added after purification
- Km [3]: 11 ± 2 µM
- Vmax [3]: 4.2 µM/min
- kcat [3]: 0.507 ± 0.057 s⁻¹
- kcat/Km [3]: 45100 ± 1520 M⁻¹ s⁻¹
- Km [4]: 507 ± 142 µM
- Vmax [4]: 3.07 µM/min
- kcat [4]: 0.37 ± 0.095 s⁻¹
- kcat/Km [4]: 730 ± 20 M⁻¹ s⁻¹

Source: publication PMC4052671, “Cloning, expression and characterization of a versatile Baeyer-Villiger monooxygenase from Dietzia sp. D5” (AMB Express, 2014)
